# Assay results taken from patent publication US20180305699A1 (UNIVERSITY OF CHICAGO, published 2018).
# T1: methionyl-tRNA synthetase (Mes1) (S. cerevisiae, UniProt P00958 2-751, limits assumed)
# T1 construct: Component of the purified AME complex; also called YGR264C
# T1 sequence: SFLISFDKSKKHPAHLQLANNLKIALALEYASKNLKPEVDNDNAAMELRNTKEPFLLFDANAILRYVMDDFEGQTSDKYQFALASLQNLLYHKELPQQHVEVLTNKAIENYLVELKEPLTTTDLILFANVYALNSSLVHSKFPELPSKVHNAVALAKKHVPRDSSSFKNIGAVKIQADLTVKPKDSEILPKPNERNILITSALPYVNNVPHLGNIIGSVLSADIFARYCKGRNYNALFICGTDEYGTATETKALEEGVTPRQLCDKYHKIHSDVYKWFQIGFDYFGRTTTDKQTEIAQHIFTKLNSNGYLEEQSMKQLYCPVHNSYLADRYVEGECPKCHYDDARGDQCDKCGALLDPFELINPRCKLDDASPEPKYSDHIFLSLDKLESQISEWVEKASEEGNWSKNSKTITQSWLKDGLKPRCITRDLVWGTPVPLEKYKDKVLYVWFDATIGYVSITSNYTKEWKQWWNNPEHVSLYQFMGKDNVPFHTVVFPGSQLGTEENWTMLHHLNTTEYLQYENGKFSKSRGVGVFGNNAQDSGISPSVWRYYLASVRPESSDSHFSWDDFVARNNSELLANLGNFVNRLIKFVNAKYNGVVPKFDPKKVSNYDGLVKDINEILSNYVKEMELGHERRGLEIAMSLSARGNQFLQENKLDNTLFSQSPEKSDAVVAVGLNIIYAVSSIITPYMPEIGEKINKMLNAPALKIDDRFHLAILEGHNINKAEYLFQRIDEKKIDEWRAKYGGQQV
# T2: glutamyl-tRNA synthetase (Gus1) (S. cerevisiae, UniProt P46655 1-708)
# T2 construct: Component of the purified AME complex; also called YGL245W
# T2 sequence: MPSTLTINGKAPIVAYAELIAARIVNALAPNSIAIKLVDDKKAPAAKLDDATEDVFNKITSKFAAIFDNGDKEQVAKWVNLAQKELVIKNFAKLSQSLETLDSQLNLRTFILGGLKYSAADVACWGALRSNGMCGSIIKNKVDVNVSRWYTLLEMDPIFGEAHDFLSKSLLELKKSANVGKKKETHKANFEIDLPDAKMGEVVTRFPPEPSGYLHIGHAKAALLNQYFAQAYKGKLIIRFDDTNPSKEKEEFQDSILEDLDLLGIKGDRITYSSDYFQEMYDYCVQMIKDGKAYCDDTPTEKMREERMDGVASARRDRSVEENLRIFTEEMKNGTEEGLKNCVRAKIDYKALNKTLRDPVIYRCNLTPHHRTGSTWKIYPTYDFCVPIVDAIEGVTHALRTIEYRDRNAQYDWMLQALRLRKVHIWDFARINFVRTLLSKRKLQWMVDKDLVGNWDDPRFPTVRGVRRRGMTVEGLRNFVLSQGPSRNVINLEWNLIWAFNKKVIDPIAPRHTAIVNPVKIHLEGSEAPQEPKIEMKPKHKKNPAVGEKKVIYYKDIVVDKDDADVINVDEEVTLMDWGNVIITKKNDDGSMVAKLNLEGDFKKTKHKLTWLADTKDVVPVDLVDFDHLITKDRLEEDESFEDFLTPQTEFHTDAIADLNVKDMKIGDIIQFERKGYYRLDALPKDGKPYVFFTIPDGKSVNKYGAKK
# B1: aminoacylation cofactor (Arc1) (other)
# chain: MSDLVTKFESLIISKYPVSFTKEQSAQAAQWESVLKSGQIQPHLDQLNLVLRDNTFIVSTLYPTSTDVHVFEVALPLIKDLVASSKDVKSTYTTYRHILRWIDYMQNLLEVSSTDKLEINHDLDLPHEVIEKKKKAPAGGAADAAAKADEDVSKKAKKQDHPRGKPDEETLKKLREEAKAKKAAKKAANAKQQQEQQNKAPEKPKPSAIDFRVGFIQKAIKHPDADSLYVSTIDVGDEEGPRTVCSGLVKHFPLDAMQERYVVVVCNLKPVNMRGIKSTAMVLCGSNDDKVEFVEPPKDSKAGDKVFFEGFGDEAPMKQLNPKKKIWEHLQPHFTTNDGLEVIFKDEEEKDHPVRKLTNAKGESFKVASIANAQVR
# notes: Component of the purified AME complex; also called YGL105W
# Assays:
# [1] = biological target: T1, methionyl-tRNA synthetase (Mes1); assay: co-elution on Superdex200 gel filtration, western blot of fractions (AME complex of Arc1, Mes1 and Gus1)
# Source text: (§1) Shown on the left panel is the elution profile from Superdex200 gel filtration column.
# [2] = biological target: T2, glutamyl-tRNA synthetase (Gus1); assay: as above
# Source text: as §1
binder,measurement,setting,value
B1,binding result,[1],binds
same,binding result,[2],binds
